Here are results for 8 molecules from patent US20190270826A1 (Janssen / Centocor, published 2019).

Numbering of substitutions follows the chain as printed.

The chains are these.
T1: recombinant human IL1RAP ECD (human, UniProt Q9NPH3 21-367)
T1 construct: His-tagged; also called hIL1RAP-ECD; rhuIL1RAP
T1 sequence: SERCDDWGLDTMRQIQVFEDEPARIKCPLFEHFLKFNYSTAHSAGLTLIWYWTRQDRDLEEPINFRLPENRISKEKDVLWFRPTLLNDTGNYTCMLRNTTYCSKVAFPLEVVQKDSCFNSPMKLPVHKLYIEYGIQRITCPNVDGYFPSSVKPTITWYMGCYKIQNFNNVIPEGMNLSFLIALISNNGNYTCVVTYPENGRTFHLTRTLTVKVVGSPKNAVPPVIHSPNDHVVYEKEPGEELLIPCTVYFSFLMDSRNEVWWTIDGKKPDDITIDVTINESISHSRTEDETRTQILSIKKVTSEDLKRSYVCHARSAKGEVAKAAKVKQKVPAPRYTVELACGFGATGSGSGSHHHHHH

T2: recombinant cyno IL1RAP ECD (cynomolgus monkey, UniProt P59822 21-367 (rhesus entry))
T2 construct: also called rcynoIL1RAP
T2 sequence: T1 sequence with L183F, T273P, K326T

T3: cyno IL1RAP ECD displayed on HEK-293F cells (pDisplay) (cynomolgus monkey, UniProt P59822 21-367 (rhesus entry))
T3 sequence: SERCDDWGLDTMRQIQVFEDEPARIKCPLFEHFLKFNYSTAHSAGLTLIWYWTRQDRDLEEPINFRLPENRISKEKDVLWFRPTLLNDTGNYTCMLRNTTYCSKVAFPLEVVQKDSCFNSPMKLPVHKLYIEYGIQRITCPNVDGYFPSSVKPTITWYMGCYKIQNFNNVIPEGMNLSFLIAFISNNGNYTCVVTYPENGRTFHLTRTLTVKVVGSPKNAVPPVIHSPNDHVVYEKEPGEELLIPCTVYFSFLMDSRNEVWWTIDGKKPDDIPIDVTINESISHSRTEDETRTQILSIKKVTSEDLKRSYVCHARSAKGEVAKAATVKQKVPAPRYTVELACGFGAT

T4: human IL1RAP on cells (endogenous) (human, UniProt Q9NPH3 21-570)
T4 sequence (looked up): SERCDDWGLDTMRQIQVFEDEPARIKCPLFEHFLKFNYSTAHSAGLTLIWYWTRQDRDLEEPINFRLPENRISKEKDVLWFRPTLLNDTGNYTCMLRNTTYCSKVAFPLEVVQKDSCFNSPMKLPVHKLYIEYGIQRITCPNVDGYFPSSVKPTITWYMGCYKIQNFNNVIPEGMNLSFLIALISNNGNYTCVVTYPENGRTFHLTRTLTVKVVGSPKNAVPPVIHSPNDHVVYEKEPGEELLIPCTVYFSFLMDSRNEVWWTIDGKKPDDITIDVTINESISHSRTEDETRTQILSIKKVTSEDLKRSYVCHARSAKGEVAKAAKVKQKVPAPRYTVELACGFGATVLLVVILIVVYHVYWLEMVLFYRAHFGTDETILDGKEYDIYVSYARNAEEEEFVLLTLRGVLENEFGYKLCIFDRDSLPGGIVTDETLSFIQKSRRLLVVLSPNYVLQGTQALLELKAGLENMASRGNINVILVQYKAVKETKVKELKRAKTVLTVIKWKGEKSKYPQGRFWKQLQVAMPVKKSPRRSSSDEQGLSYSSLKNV

B1: IAPB55 (antibody, human IgG4 S228P, kappa, F234A L235A, V domains shown)
VH: QLQLQESGPGLVKPSETLSLTCTVSGVSISSSTYYWGWLRQPPGMGLEWTGSIYFTGNTYYNPSLKSRVTISVDTSRNQFSLKLSSVTAADTAVYYCGSLFGDYGYFDYWGQGTLVTVSS
VL: EIVMTQSPATLSVSPGERATLSCRASQFISSNLAWYQQKPGQAPRLLIYGASTRATGIPARFSGSGSGTDFTLTISSLQSEDFAVYYCQQYNNWPFTFGPGTKVDIKR
notes: IgG4-PAA; whole chains
B2: IC3B8 (bispecific antibody, human IgG4 S228P, kappa, lambda, F234A L235A)
heavy 1: EVQLVESGGGLVQPGGSLKLSCAASGFTFNTYAMNWVRQASGKGLEWVGRIRSKYNAYATYYAASVKGRFTISRDDSKNTAYLQMNSLKTEDTAVYYCTRHGNFGNSYVSWFAYWGQGTLVTVSSASTKGPSVFPLAPCSRSTSESTAALGCLVKDYFPEPVTVSWNSGALTSGVHTFPAVLQSSGLYSLSSVVTVPSSSLGTKTYTCNVDHKPSNTKVDKRVESKYGPPCPPCPAPEAAGGPSVFLFPPKPKDTLMISRTPEVTCVVVDVSQEDPEVQFNWYVDGVEVHNAKTKPREEQFNSTYRVVSVLTVLHQDWLNGKEYKCKVSNKGLPSSIEKTISKAKGQPREPQVYTLPPSQEEMTKNQVSLTCLVKGFYPSDIAVEWESNGQPENNYKTTPPVLDSDGSFLLYSKLTVDKSRWQEGNVFSCSVMHEALHNHYTQKSLSLSLGK
light 1: QAVVTQEPSLTVSPGGTVTLTCRSSTGAVTTSNYANWVQQKPGQAPRGLIGGTNKRAPGTPARFSGSLLGGKAALTLSGAQPEDEAEYYCALWYSNLWVFGGGTKLTVLGQPKAAPSVTLFPPSSEELQANKATLVCLISDFYPGAVTVAWKADSSPVKAGVETTTPSKQSNNKYAASSYLSLTPEQWKSHRSYSCQVTHEGSTVEKTVAPTECS
heavy 2: not shown
light 2: not shown
notes: IgG4-PAA, Fab arm exchange; also called IAPB23 x CD3B220
B3: IC3B6 (bispecific antibody, human IgG4 S228P, kappa, lambda, F234A L235A)
heavy 1: B2 heavy 1
light 1: B2 light 1
heavy 2: not shown
light 2: not shown
notes: IgG4-PAA, Fab arm exchange; also called IAPB3 x CD3B220
B4: IC3B15 (bispecific antibody, human IgG4 S228P, kappa, lambda, F234A L235A)
heavy 1: B2 heavy 1
light 1: B2 light 1
heavy 2: not shown
light 2: not shown
notes: IgG4-PAA, Fab arm exchange; also called IAPB65 x CD3B220
B5: IC3B13 (bispecific antibody, human IgG4 S228P, lambda, F234A L235A)
heavy 1: B2 heavy 1
light 1: B2 light 1
heavy 2: not shown
light 2: QSALTQPRSVSGSPGHSVTISCTGTSSDVGDYNYVSWYQQRPGKVPKLLIYDVSKRPSGVPDRFSGSKSGNTASLTISGLQAEDEAIYFCASYAGNYNVVFGGGTKLTVLGQPKAAPSVTLFPPSSEELQANKATLVCLISDFYPGAVTVAWKADSSPVKAGVETTTPSKQSNNKYAASSYLSLTPEQWKSHRSYSCQVTHEGSTVEKTVAPTECS
notes: IgG4-PAA, Fab arm exchange; also called IAPB63 x CD3B220
B6: IC3B3 (bispecific antibody, human IgG4 S228P, kappa, lambda, F234A L235A)
heavy 1: B2 heavy 1
light 1: B2 light 1
heavy 2: not shown
light 2: DIQLTQSPSFLSASVGDRVTITCRASQGISSYLAWYQQKPGKAPKLLIYAASTLQSGVPSRFSGSGSGTEFTLTISSLQPEDFATYYCQQVNSYPLTFGGGTKVEIKRTVAAPSVFIFPPSDEQLKSGTASVVCLLNNFYPREAKVQWKVDNALQSGNSQESVTEQDSKDSTYSLSSTLTLSKADYEKHKVYACEVTHQGLSSPVTKSFNRGEC
notes: IgG4-PAA, Fab arm exchange; also called IAPB57 x CD3B220
B7: IC3B14 (bispecific antibody, human IgG4 S228P, lambda, F234A L235A)
heavy 1: B2 heavy 1
light 1: B2 light 1
heavy 2: not shown
light 2: B5 light 2 with A91S
notes: IgG4-PAA, Fab arm exchange; also called IAPB64 x CD3B220
B8: IC3B12 (bispecific antibody, human IgG4 S228P, kappa, lambda, F234A L235A)
heavy 1: B2 heavy 1
light 1: B2 light 1
heavy 2: not shown
light 2: not shown
notes: IgG4-PAA, Fab arm exchange; also called IAPB55 x CD3B220

The first test has as its target T1, recombinant human IL1RAP ECD. Nature of the test: SPR, summary. On the technique in general: SPR reads the build-up and loss of mass on a sensor chip optically.
Usually Kd stands for the equilibrium constant for the complex coming apart. B1: the equilibrium dissociation constant (Kd) turned out to be 1.64 nM.

A further test shares this target. The test is described as follows: SPR.
For the molecule B2, the Kd was 9.96 nM.
On the same count and under the same terms, the result for B3 reads 2.29 nM; that for B4, 11.5 nM; that for B5, 0.122 nM.
Still for that read-out and setting: the value for B6 was 0.034 nM.
On the same count and under the same terms, the result for B7 reads 0.246 nM; that for B8, 0.313 nM.

For a further test, the target named is T2, recombinant cyno IL1RAP ECD. Nature of the test: SPR.
Regarding B2, the Kd was 2.7 nM.
On to B3, for which the dissociation constant Kd came to 2.99 nM.
On the same count and under the same terms, the result for B4 reads 9.08 nM.
Same read-out and setting: the value for B5 was 0.451 nM; that for B6 was 0.0861 nM; that for B7 was 0.993 nM.
Same read-out and setting: the value for B8 was 0.218 nM.

The target is the same in a further test. The test is described as follows: recombinant protein.
Consider B1, for which the binding result is reported as “binds”.

For the next test, the target named is T1, recombinant human IL1RAP ECD. The test is described as follows: SPR; human KD over cyno KD.
Regarding B2, the “Hu/Cyno KD Ratio” value is 3.7.
Still for that read-out and setting: the value for B3 was 0.8; that for B4 was 1.3; that for B5 was 0.3.
On the same count and under the same terms, the result for B6 reads 0.4; that for B7, 0.2; that for B8, 1.4.

The target is the same in a further test. The test is described as follows: SPR, summary. The source holds these as a separate data set.
With B2, the equilibrium dissociation constant (Kd) was 9.96 nM.
Turning to B3, the Kd is 2.29 nM.
For the molecule B4, the dissociation constant Kd was 11.5 nM.
With B5, the equilibrium dissociation constant (Kd) stood at 0.122 nM.
Still for that read-out and setting: the value for B6 was 0.034 nM; that for B7 was 0.246 nM.
On the same count and under the same terms, the result for B8 reads 0.313 nM.

For the next test, the target named is T2, recombinant cyno IL1RAP ECD. Nature of the test: SPR, summary.
As for B2, the Kd turned out to be 2.7 nM.
For B3, the dissociation constant Kd was 2.99 nM.
Still for that read-out and setting: the result for B4 reads 9.08 nM.
Same read-out and setting: the result for B5 reads 0.451 nM; that for B6, 0.086 nM; that for B7, 0.993 nM.
Same read-out and setting: the value for B8 was 0.218 nM.

Another test concerns the target T3, cyno IL1RAP ECD displayed on HEK-293F …. Nature of the test: HEK-293F cells (MSD).
In the case of B1, the binding result is recorded as “binds”.

The next test has as its target T4, human IL1RAP on cells (endogenous). Nature of the test: cell-based or functional assay.
Regarding B2, the “EC50, T-cell mediated cytotoxicity” value came to 0.138 nM.
The same measure, in the same setting: the result for B3 reads 0.49 nM; that for B4, 0.94 nM.
The same measure, in the same setting: the result for B5 reads 0.054 nM; that for B6, 0.131 nM; that for B7, 0.1 nM.
In the case of B8, the “EC50, T-cell mediated cytotoxicity” value amounted to 1.3 nM.

The next test deals with T2, recombinant cyno IL1RAP ECD. The test is described as follows: SPR. This is another data set of the same source.
By koff is commonly meant the first-order rate constant of dissociation. For orientation: kon means a measure of how fast the partners come together. In the case of B2, the equilibrium dissociation constant (Kd) amounted to 2.7 nM, the koff was determined as 0.00121 s⁻¹ and the kon amounted to 448000 M⁻¹ s⁻¹.
For B3 the same measures were 2.99 nM, 0.00054 s⁻¹ and 180000 M⁻¹ s⁻¹.
For B4 the same measures were 9.08 nM, 0.00344 s⁻¹ and 379000 M⁻¹ s⁻¹.
With B5, the Kd was 0.451 nM, the off-rate constant (koff) was 0.000532 s⁻¹ and the kon was 1.18e+06 M⁻¹ s⁻¹.
For B6 the same measures were 0.0861 nM, 8.2e-05 s⁻¹ and 952000 M⁻¹ s⁻¹.
For B7 the same measures were 0.993 nM, 0.000858 s⁻¹ and 864000 M⁻¹ s⁻¹.
On to B8, for which the Kd was determined as 0.218 nM, the off-rate (koff) came to 0.000331 s⁻¹ and the kon was found to be 1.52e+06 M⁻¹ s⁻¹.

The next test addresses T1, recombinant human IL1RAP ECD. The test is described as follows: SPR. This is another data set of the same source.
For B2, the equilibrium dissociation constant (Kd) is 9.96 nM, the dissociation rate constant (koff) is 0.00298 s⁻¹ and the kon came out at 300000 M⁻¹ s⁻¹.
Taken in the same sequence, the figures for B3 were 2.29 nM, 0.000381 s⁻¹ and 167000 M⁻¹ s⁻¹.
Taken in the same sequence, the figures for B4 were 11.5 nM, 0.00395 s⁻¹ and 343000 M⁻¹ s⁻¹.
Taken in the same sequence, the figures for B5 were 0.122 nM, 0.000114 s⁻¹ and 938000 M⁻¹ s⁻¹.
With B6, the dissociation constant Kd amounted to 0.034 nM, the koff is 2.98e-05 s⁻¹ and the kon was 875000 M⁻¹ s⁻¹.
In the case of B7, the Kd was 0.246 nM, the koff is 0.000171 s⁻¹ and the on-rate (kon) is 695000 M⁻¹ s⁻¹.
Taken in the same sequence, the figures for B8 were 0.313 nM, 0.000361 s⁻¹ and 1.15e+06 M⁻¹ s⁻¹.
